Reference: a protein production outcome set (Wang et al. 2014)

Assay: label from the status in PepcDB records

| Sequence | protein production |
| --- | --- |
| MLDFNIEGLIPKNMEKRGELVLNEYLKEIEDVFNHRKIPENGIDDEKIKLFLKFLSMMDTDKDPKSVRIGEREARTYSKIHEELSSGFCHGIGRSGNLVDPQPKASGASIMYALTNKILESFFKQLGLNVHAIATPISTGMSISLCLSAARKKYGSNVVIYPYASHKSPIKAVSFVGMNMRLVETVLDGDRVYVPVEDIENAIKKEIELGNRPCVLSTLTFFPPRNSDDIVEIAKICENYDIPHIINGAYAIQNNYYLEKLKKAFKYRVDAVVSSSDKNLLTPIGGGLVYSTDAEFIKEISLSYPGRASATPVVNTLVSLLSMGSKNYLELVKNQKNSKKLLDELLNDLSKKTGGKFLDVESPIASCISVNSDPVEIAAKLYNLRVTGPRGIKKTDHFGNCYLGTYTHDYIVMNAAIGVRTEDIVNSVSKLEKILL | failed |
| MLDKVIYSLLRTQDPGLAQELYFRLQAKEQSFAEVAQKYSQGPESQTGGLVGPVEQSSLHPAMVQLLSSCQPGQISPPTRITEWYVIVRVEKFIPAQLEHHHHHH | not failed |
| MLDNKDIATPSRTRALLDKYGFNFKKSLGQNFLIDVNIINNIIDASDIDAQTGVIEIGPGMGSLTEQLARHAKRVLAFEIDQRLIPVLNDTLSPYDNVTVINEDILKANIKEAVENHLQDCEKIMVVANLPYYITTPILLNLMQQDIPIDGYVVMMQKEVGERLNAEVGSKAYGSLSIVVQYYTETSKVLTVPKSVFMPPPNVDSIVVKLMQRTEPLVTVDNEEAFFKLAKAAFAQRRKTINNNYQNYFKDGKQHKEVILQWLEQAGIDPRRRGETLSIQDFAKLYEEKKKFPQLEN | failed |
| MLDPILLLGLVVAVLAMSLVAQALSSYFRIPFIIFLLIEGIIAGPEVLNLLNPALYVDGLSTIVAISVSVIVFDGGLHIDLKHIRMVQESVLKLTTIGVFVTFLGTTVLTSLLIEIPLELAALFGALVTATGPTVITPIVRNIQISHKLGKILELEGVLNDAASVILAAMVFEWVAAELSGTDAVVFILYRLGIGIALGSLSGFALRWFFTRGKAISNRTARLVSLTAVFSCFVFSEYLGNESGILAVAIFGIILGTSDFPYKDTIKEFKSDIVIVMLSLIFILLAAMIKFEYILRIGASGVALVLLLIFVIRPFAVFVSMWNSQIGTNEKLFISFVGPRGVVPTAVATYFAIKLDSMGIPGGQTLVGLVFLTVIITVFMSGSLSKKVAEVLEVIPMEILIIGGGKVGRILAERFDKRGENVVVVDISEDNCKKCMELGIRTVQGDAGDVNVLKKAGIENAKYVVATTNQDNTNLLFCQLAKASFGFRGDQLVARVNEIENLQAFWNLGIRSMSPAMTTAVVLDNMIGRPHLFSMCEVGGEGEMMEVKVTNPRVIGKAIKDIQFPEKSLLVMVQRGSDSIIAHGNLVLEYEDIVTVIGEGDAAKQTAAILHK | failed |
| MLDTLVFGCVAFPLLAALAVYFVRGEAARRLIVPGAVAVTALSALGMAGSGPIMFAPKSFLGIGLDGLIAFLDFALLFYILYLGTKMRHLLIMGMTVLQIVGLIYLEFFLMDHGATVPGFYVDSLSLTMVLIISFVGGLICVYGLGYMKEHEEHLHLPQTKQPRFFFFVVLFLGAMNGLVLSNNLAWMYFFWEITTLCSFMLIGHDGTDEAKTNATRALWMNMVGGVAFVFALLFLQKGMGTLSVQDILARAVEPEMRTTAVLLPMAMLCLAGFTKSAQLPFQSWLCGAMVAPTPVSALLHSSTMVKAGVYLILRMAPGYAGTALSTGVALFGAFTFIVTSALAAGQSNGKKILAYSTIANLGLIVACAGINTAASVAAAMMLIIFHAISKGLLFLCVGAIEQKIGSRNIEDMRNLFERMPRTAVITVIGIVTMMLPPFGMLIAKWMAIESAAGAMSAMPLLVIMIALGSALTVLFWARWAGIMLGSSRPGFGPMQEEQDITIRLPLVSLVGGALVLSLLAPFVYTGLVEPAIAMYAKASAYGVSIGTIGNTMGAFAVYPLYLLLGAGFYYAWRAARNTPDSAASLPYMGGSQMTQDGVVGFNGPMNQFVPNAAGNYYLEKLFGEAQLTKPGNVVAIVLLILMIGGML | failed |
| MLEFTKRSLMNKYNINERVLELYERALNDVEKEFKYYDEIREYNQLKVLKAFQEERISESHFTNSSGYGYNDIGRDSLDRVYANIFNTESAFVRPHFVNGTHAIGAALFGNLRPNDTMMSICGMPYDTLHDIIGMDDSKKVGSLREYGVKYKMVDLKDGKVDINTVKEELKKDDSIKLIHIQRSTGYGWRKSLRIAEIAEIIKSIREVNENVIVFVDNCYGEFVEEKEPTDVGADIIAGSLIKNIGGGIATTGGYIAGKEEYVTQATFRVTVPGIGGECGSTFGVMRSLYEGLFMAPHVTIEAVKGAVFCARIMELAGFDVLPKYNDKRTDIIQAIKFNDEKKLIDFIKGIQTASPVDSFVQCEAWDMPGYEDKVIMAAGTFVQGASIELSADAPIREPYIGYLQGGLTFDHAKLGVLIALSKLIM | not failed |
| MLEHHFRSLKAIDRVRAQWLGPQIERYVQSLDELHTSNATVRQHIRALGHFNDFVIARGVTKLEALPDHVDAFVEYWHAGHAGWCKNNQDRAAVTAQSRVPVERMLCLALPDYTRPNNRPAMPFANTVPGFLPFLNDEKGLRQESQQRYLYTLRPFEAYLNRGGIALSGLEPAHISRFLEERAKTLHKAGMRDTAGALRIFLRYLHREGIVATDLVRSVPRGRIYRQASIPRAIGWQDVERLLTSIDRRSILGKRDYAILTLLASYGLRAREIAALCLDDFDWTHAQISIPMRKGGHSTRYPLSATVGDAVISYLQARRSDVPHRQVFLTARSPYIPMRHWTVSAMVGIRMRDIGIQVTRAGSHTLRHACVQHLVEADMPFKVIGDYVGHSHPSSTLVYGKVAVHKLRQIVLFQGEDVL | failed |
| MLELDGSGAEPLRDGDPRWIGPIPLIGRLGSGGMGRVYLGVHEGRYAAVKQLLPSVVAEDEDFLRRFGHELDNLARLPGEATAPLLAGDREARPPWFATAYVPGLTLTEALEVHGGPLPAGALWLLLREAAKGLAAVHALDMVHRDLKPSNVMLTLEGLTLIDFGVARAAEQSRLTRTGMVVGTPAYMSPEQASGRRASSGAVDVFALGSVLAYAASGRPPFGDESGHAVLYRIVHEEPDLGPLRELDPELADVVASCLDKDHEGRPTAAELLETAERHGPYEPPLWPEALTERLTERAAFVTKLPERADLPEPEPEPERDPGPGPGSAVLGRRDPGRSDHRRRHRVLFAVVPVVVAAGATLAVQLLPYTFAPGDRADASPSSSAPVSSAPAASPAGPGKASRTATPDQDRSASPSRSPGEQGDRRGDADGGGGAAGGSQGDADAGGAGSGSGSGSGSAGDGGAGAGSGAGSGDGSGSDSGSGSGADSGSGAGSGSGSGSGSGSGDGGASGSGVFTLKNAKNGRCLTTAHADAPYDGDCTGDAATWTFRSRPDGTVWIINGLLGRCIYTAAIGHPVFSFPCGRTTGQEWRVGSGGTLKNAATGGCVTVSAMSGTGVRNEACEQSAAQRWTRS | failed |
| MLERILEPEVMDTEAEAMDYDAMDFQAVNLAFAQRACQLGPSKATVLDAGTGTARIPILLAQLRPAWQITAIDFARSMLAIAKENVIAAGCETQICLEFVDAKQLPYANGSFDGVIANSLCHHLPRPLDFLREVKRVLKPHGFLLIRDLIRPESPEKLADFVTAIGSDYNDQQRKLFADSLHASLTIAEIQDYLQHLGWVGDDGPNLELHLYQSSDRHWTLEKKFQSSTIVQR | failed |
| MLESFGEHRWLLWAVASAVLACTEMLSGEFTLLMLAAGAGAGAITAAIVPGMWLLQVIVAAVVAALLLTVLRPTLLRRVREAPGYRSALDKLVGSDGVATSDITDGHGQVKVDGEEWSARALEPGSTIAAGEKIEVYEIDGATLVVYPVFRSLSS | failed |
| MLETLYAFFDLGQFSQSPINGSHNPGLVILSYCVALLASYTAILTLERVQIYQAKVARYSWLIVSAVISGVGVWSMHFIGMLAFELHLPMSHSVLLTLISVVPAIVGSFIAMKIQMSLSSVRATLIAGTVLGAGIGLMHYTGMAAMEMSAHLRYDPLWFVLSVFVAVSLGIIALLAYRHYKKSERTSWFRRRSAQIVVAAIIALAISGMHYTAMIAANFYPTRAPDAVFSGHGNWLAYVVGIGSCLTAIMAIIASQIDRRLQQQQKLAQMSAEQLYEVISAIDDGLLLFDEHNRVLLANQAFTRLTGDDLERIKGSKLNIEDYIERSDKLLENIKNSLARRVAWQGKVNVRKRSGTTFPVRLSISKVRYNQQKERHFVATVTDISAEVESSERIRYLAYNDALTGLANRRSLLDHLQDQLATYKEAGQNGALILCDIDKFKILNNTLGSDMGDLLLKRVAERLQSSTKANSFLARLSANEFAVVLTGLERGNSVNIKQQLLTRIYQLLDQLQQPYQLNSYTHLCSFSAGASLFDDSESNAETLMTQSGLALSHSKRKGTGEVSLFRQEFADAVSKRVKLEEQLRNAIKQNEFELYLQPQVNIESKPTGAEALIRWKQSDGRFVSPADFIPLAEETGLIVPLGYWITERACQILQQWQQSPEKAKMQLSINVSAKQFQQPEFVEQVQLLVEKYEIRPHRLKLELTESLLMDDISSVTNKIKQLKRLGIEFALDDFGTGYSSLSYLMQIPFDTLKIDVSFVRNMLDSMEKAQIVYTIIQLGESLKLNIVAEGVETEEQFNYLARLNCDTFQGYLFSKPVPESEFLADKTAP | failed |
| MLEVVYIVGAFGSPLLTPPTLAVAGFLIAVLMGLEYGVLWVLTGESLNRELILVISNIVYSIAWSITALPFTPIYYTLQPYFSQPLLIYLYLALFIGSILLGVIPAIMYIRKYLQFNKIQKEFKQLELDYKSINQEYSEINTRLNKAKEEINNVMDKINKAKELHETALRDPDLIVTALDKKPEIPEVIRPNVNYVVAGLGGTGTALLEALIDYLVSKNVIKEDGTNPFLFVAFDTNQASIARLRKKYEYTPVGKLLYTFNNFEALTTANIISHNPWLAGLNVDVIQGSGMKRAIGYASYNTVKEAMMEDILRRLSDLIAKTRTNRIFLIVFTALGGGTGSGSFIHFTKDFISRLGRITGDSEPYVRVSGM | failed |
| MLFDEKEILAITRWAKLYANQSPDRILLGSNDIPPEYRAAVATQIELWPRLRNKLPQWAGISSLYIPSRLSLEQSSGAVTSSYKSRFIREGTKVVDLTGGLGIDFIALMSKASQGIYIERNDETAVAARHNIPLLLNEGKDVNILTGDFKEYLPLIKTFHPDYIYVDPARRSGADKRVYAIADCEPDLIPLATELLPFCSSILAKLSPMIDLWDTLQSLLHVQELHVVAAHGEVKELLVRMSLNEATIPPEKVPIHAINLLLEDTVIPFIFTMEEERSISIPYTDSIDKYVYEPHTALLKAGAFKTVAYRLGLRKLHPNSHLYTSEAYESAFPGRTFVLEEIIPFSTSVLKQLRKVVPQASISCRNFPLSPIELRQRSKMADGGEKTLMGTTMADGKKVLLLLRKAE | not failed |
| MLFFADRSPFVRPLSGYAPVTPAAPRSTGSAAAPPPSPAVLDDRSGTEGDVTPMMAQYLAVKAAHPDCLLFYRMGDFYEMFFEDAVKAAETLDIALTKRGRHAGADIPMCGVPIHSHEGYLSRLIRAGIKVAICEQMEDPAEARRQRGYKAVVRRDVIRVVTAGTLTEDELLDARAHNYLAAVVRLRDAVGMAWVDVSTGDLVAQPLAEADIGPALARLAPGEVLMPEKLAGDPALREILAPLAGRISPLPASRFDSENARKRVEGLFGVKALDGFGGFGRAEVAAIGALIDYVELTQVGRLPRLSPPRRLSLGAILEIDGATRRNLELTETLGGGRKGSLLARIDCTVTGAGARLLAERLAAPLTDPAQIGARLDGVGFLVSAERVRGDLRDTLRGCPDIARALSRLSLGRGGPRDLAAIGEALSRIPALRVLVVGAGLGEPPTELTAALIDLGSHEGLVDLLGRALDADLPLLARDGGFIRPGYDAGLDELRALRDEGRRLIAGLQARYASETAIPALKIKHNNVLGYFIEVAAGRADKLMAAGGPFLHRQTLASQVRFTTVELSELEDKIRGAADKALALEQALFATLCAEVLGCAADIARAANGLACLDVAAALADLAARERYARPVVDNSTAFRIHKGRHPVVEAALADQAGPAFVANDCDLAPDQRLWLLTGPNMAGKSTFLRQNALIAVLAQMGSFVPAESAEIGVIDRLFSRVGAADDLARGRSTFMVEMVETAAILNQATERSLVILDEIGRGTATYDGLSIAWATVESLHDATRCRALFATHYHELTALASRLDRLSCHTLRIKEWKDQVVFLHEVGPGAADRSYGIHVAKLAGLPAAVIARAEQVLAILEKGDASSAATRLADDLPLFAAARPRAGLPTPPPGPHPLAEALNAINPDEMTPREALDALYRLKAVMKRE | failed |
